According to the Human Domainome abundance scans (Beltran et al. 2025):

B1: Lysine-specific demethylase 5C, residues 319 to 373; numbered along this chain, P41229 (parent)
chain: AQFIESYVCRMCSRGDEDDKLLLCDGCDDNYHIFCLLPPLPEIPKGVWRCPKCVM
B2: Tripartite motif-containing protein 49C, residues 87 to 133; numbered along this chain, P0CI26 (parent)
chain: SSEEQMCGTHRETKKIFCEVDRSLLCLLCSSSQEHRYHRHRPIEWAA

Variants of: B1
Assay: abundance fitness (aPCA) (normalised: wild type 0, dead -1); higher = more abundant; growth selection in yeast, the domain comes from the species named
Settings: Homo sapiens

Abundance fitness of substitutions, site by site:
M55: L -0.154 | V 0.015 | T -0.183 | G -0.61 | I -0.346 | A -0.035 | P 0.446 | S 0.295
V54: C -0.097 | G -0.27 | L -0.196 | S -0.261 | H 0.002 | E -0.367 | K -0.024 | R -0.131 | Q -0.54 | I 0.017 | M -0.145 | F -0.479 | W -0.836 | N -0.262 | A -0.151 | Y -0.064
C53: Y -1.01 | D -0.889 | K -0.921 | P -0.744 | S -0.835 | G -0.865 | I -0.941 | T -0.939 | R -1 | L -0.909 | M -0.713 | W -1.08 | E -0.952
W48: T -1.05 | A -0.59 | M -0.671 | L -0.849 | Y -0.568 | D -0.686 | I -0.14 | G -0.676 | C -1.15 | H -0.811 | F -0.253 | R -0.611 | Q -0.566 | S -0.839 | V -0.78 | K -0.635 | N -0.853
P51: C -0.427 | A -0.258 | H -0.015 | F -0.048 | G -0.494 | I -0.175 | D 0.009 | S 0.138 | Q -0.136 | Y -0.312 | T -0.467 | L -0.671 | M -0.092 | V -0.153 | K 0.131
V47: K 0.154 | P -0.247 | W -0.473 | F 0.082 | N -0.052 | H -0.064 | C -0.213 | I -0.132 | A -0.241 | D -0.064 | M -0.157 | R 0.044 | S 0.081 | L -0.359 | E -0.142 | T -0.101 | G -0.061 | Q 0.208 | Y -0.058
R49: F -0.358 | N 0.268 | D -0.865 | M -0.092 | G -0.4 | Q 0.106 | P -0.949 | C -0.468 | E -0.178 | W -0.085 | I -0.176 | L -0.164 | H -0.134 | K 0.205 | T -0.055 | S -0.324 | V -0.25 | A -0.262
K52: W -0.364 | L -0.282 | G -0.024 | E -0.23 | F -0.14 | N -0.032 | H -0.184 | V -0.123 | M -0.611 | P 0.049 | R 0.007 | S -0.183 | I 0.006 | A 0.02 | D 0.095 | T 0.018 | Y -0.286 | Q -0.065
C50: F -0.421 | V -1.05 | R -0.926 | T -1.05 | P -0.987 | E -0.992 | A -0.887 | I -0.757 | L -0.702 | Y -0.761 | W -0.823 | M -1.17 | Q -0.71 | G -1.01 | N -0.927 | D -0.841 | K -1

Variants of: B2
Assay: as above
Settings: Homo sapiens

Abundance fitness, by site and new letter:
E34: D 0.041 | Q -0.41
C18: G -0.821 | D -0.669 | R -0.736 | F -0.802 | L -1.09 | I -0.783 | Q -0.731 | H -0.768
F17: G -0.664 | L -0.081 | Q -0.653 | Y -0.205
L27: W -0.017 | F -0.015 | M 0.231 | R 0.149 | P 0.132
K14: A -0.029 | G -0.518
L24: T -0.099 | C -0.174 | W -0.095 | F -0.069
E12: N -0.797
